In a protein production outcome set (Wang et al. 2014):

Assay: label from the status in PepcDB records

Row | Sequence | protein production
1 | MKINKLLFGMLLLLLASCGSSRKVEKQSEQVAVQEINLTPEQQRKYDYFFLEASRLKVKKEYTAAFDLLQHCLAINPTGSAALYEIAQYYLFLKQAPQGQEALEKAVAYAPDNYWYSQALAGLYQQQDQKEKAIGILEKMATRFPAKQDPLFNLLDLYNQKEDYGKVISTLNRIEEKTGKNEQITMEKFRIYLQMKDDKKAFEEIESLVNEYPMDYRYQVILGDVYMQNGKKQEAYDTYKKVLAAEPDNPMALFSLASYYEQTGQKELFEQQMDTLLLNRKVPSDTKVNVMRQFIVQSEQEGKDSTQVIGLFDRMMQMDMDDVQIPMLYAQYLLSKGMEAQSIPVLEQVVQIDPTNKAARMTLLGSAIRKNDYEQVIKICEPGIEATPDALEFYFYLVIAYNQAEHWDDVLEVSRKALEHVTPESDKQMVSDFYTIIGDVYHTKKLMKEAYAAYDSALVYNPSNIGALNNYAYYLSVERRDLDKAEEMSYKTVKAAPNNATYLDTYAWILFEKGNYAEARIYIDDAIKNTKPEEESSVVFEHCGDIYFMTGDVEGALKYWKKALELGTESKTLKQKIEKKKYIAE | failed
2 | MKINMHILGLLVVVGLFSLQSCDDESYDIEGSNQNYVYINVNRWTSTEYPQNTFVYEVLRTPIGSSLESGPEIVKVGVRSTKVASKDITVTLDIDNCASIGEFSSFPDGVKVTLDKKELVIPAGSMLSSDSVTIEIEDGKWSEFVNTSYLLPLKVTSVSNAALSETHSSAYLAVSTSFTNCVPGATSVEGTLISDRSAWTATNNGVDVGTTLFDGNTRTYPSQDASSTVIVNLNGVYQNITGIRLQYYSRNYSLSSAAVYTSETGGEDYEYQGNVTFSRATPQYIRFYGAVSARYVKLELLPYSSGYGIVLSEFDMYQNE | failed
3 | MKIQDYTKQMVDEKSFIDMAYTLLNDKGETMNLYDIIDEFRALGDYEYEEIENRVVQFYTDLNTDGRFLNVGENLWGLRDWYSVDDIEEKIAPTIQKFDILDADDEEDQNLKLLGEDEMDDDDDIPAQTDDQEELNDPEDEQVEEEINHSDIVIEEDEDELDEDEEVFEDEEDFND | not failed
4 | MKIRVADEKELPMILQFLTEVKAYMDVVGITQWTKDYPSQGDIQEDITKKRLYLLVHEEMIFSMATFCMEQEQDFVWLKRFATSPNYIAKGYGSLLFHELEKRAVWEGRRKMYAQTNHTNHRMIRFFESKGFTKIHESLQMNRLDFGSFYLYVKELENQSIV | not failed
5 | MKISFSESQKLFAYFSGLIAALSLFIYYVSAQQSEGALILCITFGVIAAGIWFGPIYALAVTLIVLFVLGTLMMFFQTGQTSLFPAEEGLRMLVVWGIALLLFSFISGRIHDITAELRRSMTRLQSEIKSYVAVDRVTGFDNKQRMKLELSEEIKRAERYGNSFVFLLLHMHYFKEFKSLYGEKETDRLFQYVGQQIRTSVRETDKKFRPSDERIGIVLTHTPAEHMPAVLTKLKKQLDTYQLENGKYVSLTFHVCYLPYRNDIQTADQFLEELENEMMMNEL | failed
6 | MKITFISGQEVSLGTSFLLFSKKIVMNELNQPLLAIIKNVAKTKNLSIEEVVFCLKTALEQAYKKHLNFVNVEVNINFDKGIINVEQLFNVVSDENEDYDDFLEIPLQAANKINSSLQLGDVLRKPIPLKNISSDLINKMIAIFNQKISETNFKAVMSEFSSEVGEVIEAKVEDIDTNKEGGLKGYIINLETTKGYISKRELSKGERLEIGKKYLFVIKEIQRQASLWPITLSRSDTRLLQFLLTSNTPEIENGTIVIKKIERSPGVKSKIAVISNDPAVDPVAAILGPKGEKIRGISEEFNGEIIDIVFWNEDKLKFLINAILPAEVIGYNILQDDERDTSIEVVVPANQIANVFGFKGVNIRLISNLTGWNSVDVYSEKDASEANIKFTRLSFEPEGLFGIKKRREKIISNDATDKVFYTSKDNVIDDEIIVDLAKDLMVDNKQKQPEQVAKQVVEKSQLEKQVTPKEKEKVQPKAKVHSNSHSKKPAKPNQIFSITVDASDKNLKKDQVDNNQTNPQTKQTFDSFDDL | failed
7 | MKITLEHWFYNWLFEYRIKDLKPKSFERYESIYRNYIKDTDLGNVKLKYLRVSHIQKYYNRLLDSNKSIPTIRQINTKLKTCLSEAEKQGLIQRNYCTMVNIPLEHHHHHH | not failed
8 | MKIVILGAGRVGSTVAESLASESNDITVVDLVRNRLSLLQERLDLRTVVGSASHPDIMIQAGMEDADMILALTGSDETNLVACKLAASMFNTPTRIARIRTVDYLDHPDIFSRENFCVDFAICPERILTKYIEKLIEFPGALQVLDFASGKVSLVAVKAIRGGPLIGRQLKELRRHVPNLDTRVAAIFRHNHPIIPEGSTIVEEGDEVFFIASSSDIRAVMGELRRMDKSVRRVMIAGGGRIGRRLAEVLQQSHQVRIIERDIKVCESLTQNLHNTLILHGNVTDEELLESENISEMDIFCALTDDEENNIMAALMAKRMGARKVIALINRSMYVDLMQDSGIDIAISPAQVTIGSLLAYVRQGDVAVVHSLRRGAAEALELVAHGDTRSSRVVGRKIEEIKLPRSTTIGAIVRGLPPGDVYRNLSEQEEDSILAQWKQAQVIIAHHDTVIEQNDHVILFVVNKKMVRQVEKLFQVNVGFL | failed
9 | MKIVSKSSPLPLHYQLKMILQEMIENEELLPGDTIPTERELCEIQKISRMTVNKAILSLVSEGILYREQGKGTFVAKKKEKQQLTKLKSFTEEMREKGLNISTKILSFEIKTATKHISTLLELPHKKMKVIEIIRLRLTDNDPSAIETVVLPLYLFSDMTKEVIDGKSLYNTFREKYGYEPTKAKQTIEPIMLTDYEAKFLNQVGNSLALLFRRLTYRKDGVPIEYTKSIYRSEKYKYEVILT | failed
10 | MKIYASDEQYKQMNEELDERVESLVSELTLDEKIRLMCQYQEAVPRLGIGKYKHGTEGAHGVAWLGKATVFPQNIGLGCTWNEELMKKIGDVIAEEARVYYQENPEQNGLTIWAPTVDMERDPRWGRTEEAYGEDPYLTGKLTTELIKGMQGDHPFYLKTAATLKHFLANNNEEARTECSVSIDPRNLREYYLKAFEPQVKEGHVQCVMTAYNAVNGTLCNMNPDVNAILKEEWGLQGFVVSDACDVVGSVDDHQFVESYAEAVALSIKNGIDNVTDDEKIIHRAIGDALEQGLLSEEDLDQALKRVFRVRIRLGEFDQENKNPYATVAKEKLCA | failed
11 | MKIYFEAYGCTLNQGETALYVNKLLNEGNTLVSNPKEADLSIIGTCAVIKKTEDHMMARIQNLSRFGKVEVIGCLAPVKGKTMVEDNVSVIEKDRFRSFQEVIDEVSPVNAEIVSGIPINQGCTGKCNFCVSHIARGKLVSRKPEKIAGQIKILLQRGIKEIKITSLDTAAYGKDIGLRLPHLIRTITEIGDDFRLRVGMMEPKNTLEIVDDLISAYRSEKVFKFLHLPVQSGDDYVLEVMNREYTVSDFIRITGKFREAFPDSTLSTDLIIGYYAENDDSFEKTVQLIEKIRPEIINVTKFSPRELTADFEKRPKPTNILKEQDRMIADMHKEILQEKFSNLIGKTEFVLITENGKGRSMIGRDHAYRPIVIMDKTRKFEFHQVEITGFENTSLIGRIIDLEHHHHHH | failed
12 | MKKAMLLIKNGKILTMTGVNYDSGSVLIDNGKIIKVGENIDVDESCEIIDADGFWVMPGIIEAHCHVGIQEEKRGFEGNDCNEMTNPVTPYLRALDGINPMDSAFYTALTAGITGIMVGPGSANVVGGQWMFLKTYGRAIDKMVVLQPSAMKIAFGENPKANYDKKNMMPSTRIAIAAMLREELFEAQQYYEKRKNAEKSGDSFNKEFRKECWVPVFDKKIPLKAHVHRADDILTAIRIAKEFNLNLTLDHCTEGHLVAKEIKESGFPAIVGPTLTSRNKIETQYADFKTAGILHNEGVKVAITTDHPVTRIQDLLICAGLAAKEGLGIEEGLKAITINPAEICNVANRVGSIEVNKDADIAIFDGNPMETFTKTMYTIINGEIVYSLKDKNY | failed
13 | MKKDLISVVMSAYNSEKFISDSISSILDQTYENWELIIINDASSDNTLKIVNQFSEKDPRIKVIDNENNLGLTISLNIGINNSKGEFIARLDSDDFAEPSRLEKELDHLHAYPEAGLVGSGAHLINSSGNKIGSMNVMSQPYFVNRFLINLNPFIHSSIMVRKKALDNVGSYREKFRYSQDYDLILRLSDKYKLSNIALPLIRWRVSDSSVTMQHHTLQRIYADIAREFAIERRNSGHDSYESTEFDTLIHEMRIRNQGRYLCDHGVYDLLFNKKYKEGCSELIKGISKGGFPYNSFYRGITQVISKVNIQLEHHHHHH | failed
